Ends that are not written are not given here.
target: T1, IA^d (Mus musculus, UniProt P01921+P04228); assay: Inhibition of binding of 125I-radiolabelled Ova 323-339 to purified IA^d (gel filtration competition assay); settings: Table 7, good binders; concentration of the indicated polypeptide
T1 sequence (P04228 24-256): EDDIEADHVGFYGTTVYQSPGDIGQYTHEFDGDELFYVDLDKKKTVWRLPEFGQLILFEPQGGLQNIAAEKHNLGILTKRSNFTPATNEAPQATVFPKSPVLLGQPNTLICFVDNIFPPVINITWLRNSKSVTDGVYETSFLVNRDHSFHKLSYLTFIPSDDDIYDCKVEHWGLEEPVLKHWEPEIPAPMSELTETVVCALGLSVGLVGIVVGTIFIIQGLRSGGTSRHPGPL
T1 sequence (P01921 28-265): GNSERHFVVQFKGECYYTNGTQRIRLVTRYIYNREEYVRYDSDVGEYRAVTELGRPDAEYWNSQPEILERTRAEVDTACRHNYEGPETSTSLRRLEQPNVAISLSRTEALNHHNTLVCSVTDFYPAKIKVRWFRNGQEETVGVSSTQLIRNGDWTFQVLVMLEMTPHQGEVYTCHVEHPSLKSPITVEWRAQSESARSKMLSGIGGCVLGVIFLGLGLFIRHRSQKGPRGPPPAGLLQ
From the text: The following examples will illustrate the method of the present invention. First, a critical binding segment of a first polypeptide that binds to a first type of MHC, was ascertained. […] This was accomplished by the method described in Sette, et al, Nature, Vol. […] No. 6129, pp. 395-399, Jul. 30, 1987, the entirety of which is incorporated herein by reference. […] For convenience, Table I of that paper illustrating the foregoing procedure, is attached as Table 2.
The effect which the substitutions indicated by an "X" in Table III, had on the binding strength of the critical binding segment listed at the top of attached Table 4, was quantitatively calculated, and a numerical designation assigned to the substituting amino acid based upon the degree of that effect. The foregoing assigned numerical designations for each "X" position indicated in Table 3, is listed at corresponding positions in Table 4. The quantitative evaluations of the binding strength were made using a competition assay as described in Sette, et al, supra, and the numerals assigned according to the decrease in the binding activity as follows:
The value of "binding" listed in Tables 6 and 7, is in micromolar concentration of the indicated polypeptide. The assay used was the same as that in Sette et al, supra, for quatitative estimation of Ia peptide interaction.
In particular, as pointed out in Sette et al., supra, T-cell recognition is much less permissive than MHC recognition. […] However, as one would expect, when the binding strength of a polypeptide to an MHC types of an individual animal is poor, little or no immunogenic response would result. However, if a polypeptide is a good binder, as ascertained by the above method, then immunogenicity would be expected to be a possibility. […] Binding to a class II MHC type IA^d and IE^d (d strain of mouse) was evaluated using the same assay technique as used to evaluate the binding for the polypeptides in Tables 6 and 7 above.

Substance | IC50 [µM] | BINDING (M)
HNTNGVTAACSHE [Ha 130-142] | 9 | –
APYTSTLLAPELSETP [HSVD 245-260] | – | 22/2
FISEAIIHVLHSR [Myo 106-118] | 20 | –
AHRVQLGPRSLQVLLIP [JF 39] | 25 | –
SAESLKISQAV [Ova Site II] | 5 | –

target: T1, IA^d; assay: not given; settings: amount of unlabelled Ova 323-339 divided by amount of truncated peptide needed to inhibit binding of 125I Ova 323-339 to IA^d by 50%; averages of 2-4 experiments; cited from earlier work

Substance | Relative I-A^d binding capacity
Ova peptide 327-339: N-terminal truncation of Ova 323-339, starting with V (AVHAAHAEINEAG; UniProt P01012 327-339, looked up, fragment) | 0.3
Ova peptide 328-339: N-terminal truncation of Ova 323-339, starting with H (VHAAHAEINEAG; UniProt P01012 328-339, looked up, fragment) | 0.014
Ova peptide 329-339: N-terminal truncation of Ova 323-339, starting with A (HAAHAEINEAG; UniProt P01012 329-339, looked up, fragment) | < 0.005
Ova peptide 326-339: N-terminal truncation of Ova 323-339, starting with A (QAVHAAHAEINEAG; UniProt P01012 326-339, looked up, fragment) | 0.5
Ova peptide 323-336: C-terminal truncation of Ova 323-339, ending in E (KISQAVHAAHAEIN; UniProt P01012 323-336, looked up, fragment) | 1.1
Ova peptide 325-339: N-terminal truncation of Ova 323-339, starting with Q (SQAVHAAHAEINEAG; UniProt P01012 325-339, looked up, fragment) | 1.1
Ova peptide 323-335: C-terminal truncation of Ova 323-339, ending in N (KISQAVHAAHAEI; UniProt P01012 323-335, looked up, fragment) | 1.0
Ova peptide 323-332: C-terminal truncation of Ova 323-339, ending in A (KISQAVHAAH; UniProt P01012 323-332, looked up, fragment) | 0.2
Ova peptide 323-331: C-terminal truncation of Ova 323-339, ending in H (KISQAVHAA; UniProt P01012 323-331, looked up, fragment) | < 0.005
Ova peptide 323-333: C-terminal truncation of Ova 323-339, ending in E (KISQAVHAAHA; UniProt P01012 323-333, looked up, fragment) | 0.6

Reference: patent US5200320A, “Method for identifying useful polypeptide vaccines” (National Jewish Center for Immunology and Respiratory …, priority 1987, dated 1993)
